Experimental data: the DeepSol protein solubility set

Assay: soluble on expression in E. coli; label from the status in PepcDB or PDB records

| Sequence | soluble on expression in E. coli |
| --- | --- |
| MEQKNEEIEAIDDRMIAGVEVNFQKMRRSKHKTEERLTSGQVDAFAQKLFEAYPDGSLEGFLDIDDVQKKKLDEQRQEFTGDYPIVQPVLDGSRELMVVLRYNPLYHAVEIYDPVQIYDSEGIPMVVKPIREQIVNLFAHLFLDKIRLIFDIEYEQQADKCSDRLRAVGAMMAIALGYNPAAMDYNLKGISKLVKKILNSESPDFKKFEKADIGTLNAKYSGQNRVTMFIGNNGETLLATRNVYGLEKHALKTGLGKMDKNGHVVERESFLEEEFHDETIYKQFHAPDLGMGKPDNVNAIKLFHVDYRDYDLQNANGLERPIYLEPYKPVQSDCFAVPNLTSTLDRVSSNGELLKYVNEVMQSITPYTPYHLHAQSVEYLRYTPRHMNMCINPLQAIRAWALLANMADGKTNTDLLNFVGKYTYPGQLENNKMMNDDILNLHFEAEKLFEGCVRVFTELPKHLWHNEDIRIIQNSYYGGKSLRGAMQHHCFATDPDGLYSCHRINEEVALSTHGAVNFVVPENHAPNWRASIALVSAMDCTFYWKTYAKPKLMDNFNFVNEQYGASKCVGYFAHADFKFFEDIYCLESRIPGVRLYITFESPDKMDSKKEFMSKLHEKIQTCGDWHTTFDSPVFLPLCTTSTPLSLYAHAKASGLSRIFSSEKSELLEMKSIPARGGARQFSTLYDHYHKTVFEVHGSDPKVENFMRKRPRRMFDQFSPARAHQCVDDSMAELHGKYQMKNPTKEFNNKMNINPLLTYRENHLNHDEPSFEWLHENHEFDLKDPKALMFNKPFYYVMTRALVGKNQLIVCAGYFNNTTWVKQQ | not soluble |
| QVQLLQPGAELVKPGASVKLSCKASGYTFTSYWMYWVKQRPGQGLEWIGEIDPSDSYTNYNQNFKGKATLTVDKSSSTAFMQLSSLTSQDSAVYFCARSPHYYGTTYNYPMDYWGQGTSVTVSSAKTTPPSVYPLAPGCGDTTGSSVTLGCLVKGYFPESVTVTWNSGSLSSSVHTFPALLQSGLYTMSSSVTVPSSTWPSQTVTCSVAHPASSTTVDKKLEP | soluble |
| MEYIPDNSDEGRIVAMTLAVALRRALASVLGVSATELGYAVRPVRLDNEQSVLAVQLYDIISGGAGFASSAPLHIEAVLKGMVKQLGCRHCDTACSECLLDSQTRHDHDQLDRKAAQAWLGEDFSHYIGLPEAEKLEHHHHHH | not soluble |
| MGSDKIHHHHHHMAHIFVYGTLKRGQPNHKVMLDHSHGLAAFRGRGCTVESFPLVIAGEHNIPWLLYLPGKGHCVTGEIYEVDEQMLRFLDDFEDCPSMYQRTALQVQVLEWEGDGDPGDSVQCFVYTTATYAPEWLFLPYHESYDSEGPHGLRYNPRENR | soluble |
| MEEIKPASASCVSKEKPSKVSDLISRFEGGSSLSNYSDLKKESAVNLNAPRTPGRHGLTTTPQQKLLSQHLPQRQGNDADKTQGAQTCVANGVMAAQNQMECEEEKAATLSSDTSIQASEPLLDTHIVNGERDETATAPASPTTDSCDGNASDSSYRTPGIGPVLPLEERGAETETKVQERENGESPLELEQLDQHHEMKETNEQKLHKIANELLLTERAYVNRLDLLDQVFYCKLLEEANRGSFPAEMVNKIFSNISSINAFHSKFLLPELEKRMQEWETTPRIGDILQKLAPFLKMYGEYVKGFDNAMELVKNMTERIPQFKSVVEEIQKQKICGSLTLQHHMLEPVQRIPRYEMLLKDYLRKLPPDSLDWNDAKKSLEIISTAASHSNSAIRKMENLKKLLEIYEMLGEEEDIVNPSNELIKEGQILKLAARNTSAQERYLFLFNNMLLYCVPKFSLVGSKFTVRTRVGIDGMKIVETQNEEYPHTFQVSGKERTLELQASSAQDKEEWIKALQETIDAFHQRHETFRNAIAKDNDIHSEVSTAELGKRAPRWIRDNEVTMCMKCKEPFNALTRRRHHCRACGYVVCWKCSDYKAQLEYDGGKLSKVCKDCYQIISGFTDSEEKKRKGILEIESAEVSGNSVVCSFLQYMEKSKPWQKAWCVIPKQDPLVLYMYGAPQDVRAQATIPLLGYVVDEMPRSADLPHSFKLTQSKSVHSFAADSEELKQKWLKVILLAVTGETPGGPNEHPATLDDHPEPKKKSEC | soluble |
| MGSDKIHHHHHHMILTKEKSLNAGPIYGTGEGVAHSKRWYVALVRMHHEKKVSEYLNKVGIENFVPVQKEIHQWSDRRKLVESVLLPMMVFVHADPKERMEVLNFTTVSRYMVMRGESSPAVIPDDQMARFRFMLDYSDETVCMNSSPLARGEKVQVIKGPLQGLVGELVNVDGKSKIAVRLNMLGCACVDMPIGYVEPIGEKN | not soluble |
